Data set [1] addresses T1, POU4F1-s (UniProt Q01851 85-419).
T1 sequence: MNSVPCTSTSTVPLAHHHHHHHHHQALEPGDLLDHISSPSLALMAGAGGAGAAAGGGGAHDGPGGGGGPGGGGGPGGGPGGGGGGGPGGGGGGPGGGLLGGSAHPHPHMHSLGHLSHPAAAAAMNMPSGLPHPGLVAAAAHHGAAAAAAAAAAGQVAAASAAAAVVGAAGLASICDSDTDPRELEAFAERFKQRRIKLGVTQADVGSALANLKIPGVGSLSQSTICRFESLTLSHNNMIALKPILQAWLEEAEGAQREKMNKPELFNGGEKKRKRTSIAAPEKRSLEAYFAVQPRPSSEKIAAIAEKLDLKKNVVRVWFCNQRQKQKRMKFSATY
As to the kind of experiment: competition EMSA. The conditions noted are these: unlabeled, vs 32P-Probe 2; strongest competitor; 10 mM Tris-Cl pH 7.9, 100 mM KCl, 5 mM MgCl2, 1 mM EDTA, 1 mM DTT, 0.5 mM PMSF, 5% glycerol, 1 ug poly(dI-dC), on ice 30 min; 5% polyacrylamide gel.

A further data set addresses T2, POU4F2-l (UniProt Q12837 1-409).
T2 sequence: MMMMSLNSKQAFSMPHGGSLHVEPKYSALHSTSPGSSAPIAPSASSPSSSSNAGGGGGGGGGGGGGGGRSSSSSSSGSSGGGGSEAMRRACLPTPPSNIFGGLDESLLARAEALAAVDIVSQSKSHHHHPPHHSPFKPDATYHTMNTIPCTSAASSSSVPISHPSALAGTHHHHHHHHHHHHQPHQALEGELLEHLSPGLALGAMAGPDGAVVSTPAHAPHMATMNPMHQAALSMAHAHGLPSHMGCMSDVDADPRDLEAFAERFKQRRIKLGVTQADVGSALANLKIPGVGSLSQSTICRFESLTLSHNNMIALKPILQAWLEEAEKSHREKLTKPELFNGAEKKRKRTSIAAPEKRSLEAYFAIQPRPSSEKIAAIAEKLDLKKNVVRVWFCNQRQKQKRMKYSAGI
As to the kind of experiment: EMSA; 10 mM Tris-Cl pH 7.9, 100 mM KCl, 5 mM MgCl2, 1 mM EDTA, 1 mM DTT, 0.5 mM PMSF, 5% glycerol, 1 ug poly(dI-dC), on ice 30 min; 5% polyacrylamide gel. As to conditions: protein: ivt. On the technique in general: Mobility shift assays separate free from complexed probe on a gel.

The next data set has as its target T3, POU4F2-s (UniProt Q12837 98-409).
T3 sequence: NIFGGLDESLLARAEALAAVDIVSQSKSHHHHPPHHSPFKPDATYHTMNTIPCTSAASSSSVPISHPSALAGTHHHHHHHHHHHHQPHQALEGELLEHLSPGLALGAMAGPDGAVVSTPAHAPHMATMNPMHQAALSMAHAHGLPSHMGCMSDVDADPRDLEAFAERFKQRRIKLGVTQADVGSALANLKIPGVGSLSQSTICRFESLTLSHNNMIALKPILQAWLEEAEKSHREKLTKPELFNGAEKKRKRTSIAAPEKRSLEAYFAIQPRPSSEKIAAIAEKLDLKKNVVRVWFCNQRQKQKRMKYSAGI
The data set is described as above. As to conditions: protein: ivt.

Data set [2] addresses T1, POU4F1-s. The description is as above. As to conditions: protein: ivt; label: 32P fill-in; overhangs filled in by Klenow.
The target in another data set is T4, POU4F1-l (UniProt Q01851 1-419).
T4 sequence: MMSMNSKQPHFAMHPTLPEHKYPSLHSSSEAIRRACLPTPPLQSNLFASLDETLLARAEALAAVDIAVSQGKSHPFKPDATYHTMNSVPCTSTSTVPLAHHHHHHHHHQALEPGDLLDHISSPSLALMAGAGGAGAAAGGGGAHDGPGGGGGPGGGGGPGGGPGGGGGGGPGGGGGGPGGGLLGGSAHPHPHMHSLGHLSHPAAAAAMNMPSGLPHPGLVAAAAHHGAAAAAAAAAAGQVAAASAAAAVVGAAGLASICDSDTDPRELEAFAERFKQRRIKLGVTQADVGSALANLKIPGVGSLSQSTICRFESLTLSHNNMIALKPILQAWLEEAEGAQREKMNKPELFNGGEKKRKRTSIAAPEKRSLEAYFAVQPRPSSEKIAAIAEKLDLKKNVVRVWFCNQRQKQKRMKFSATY
The description is as above. The conditions noted are these: protein: ivt.

Another data set concerns the target T5, POU4F3 (UniProt Q15319 1-338).
T5 sequence: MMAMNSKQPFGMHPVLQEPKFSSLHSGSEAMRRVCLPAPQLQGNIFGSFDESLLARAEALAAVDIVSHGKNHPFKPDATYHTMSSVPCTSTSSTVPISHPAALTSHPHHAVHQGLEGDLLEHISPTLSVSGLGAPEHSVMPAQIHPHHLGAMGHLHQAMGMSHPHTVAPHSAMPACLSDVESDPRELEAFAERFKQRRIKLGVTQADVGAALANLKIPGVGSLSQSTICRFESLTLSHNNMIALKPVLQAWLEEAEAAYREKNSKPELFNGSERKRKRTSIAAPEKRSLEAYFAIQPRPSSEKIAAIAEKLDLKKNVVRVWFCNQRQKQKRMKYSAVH
The data set is described as above. The conditions noted are these: protein: ivt.

Setting [3] is: label: 32P fill-in, overhangs filled in by Klenow.
Where [4] appears, read: overhangs filled in by Klenow when labeled.

In the case of POU4F1 consensus site competitor, in the data set with POU4F1-s [1], the binding signal (relative binding strength) came out at 1000.

B1: Probe 1m (dsDNA)
DNA 1: AGCTCACGGCCTGAGTTAACAAAG
DNA 2: CTTTGTTAACTCAGGCCGTGAGCT
Regarding B1, the binding result with POU4F2-l (setting [3]), in the data set with POU4F2-s (setting [3]), in the data set with POU4F1-s [2], in the data set with POU4F1-l (setting [3]) and with POU4F3 (setting [3]) was “no binding” throughout.

B2: Probe 6m (dsDNA)
DNA 1: AGAAATCCTTAGGCCTTGACTTTG
DNA 2: CAAAGTCAAGGCCTAAGGATTTCT
With B2, the binding result with POU4F2-l (setting [3]), in the data set with POU4F2-s (setting [3]), in the data set with POU4F1-s [2], in the data set with POU4F1-l (setting [3]) and with POU4F3 (setting [3]) was “no binding” in each case.

B3: Probe 2m (dsDNA)
DNA 1: AGGGTTTTAAGGCCCTATTCAGTG
DNA 2: CACTGAATAGGGCCTTAAAACCCT
In the case of B3, the binding result with POU4F2-l (setting [4]), in the data set with POU4F2-s (setting [4]), with POU4F1-l (setting [4]) and with POU4F3 (setting [4]) was “no binding” each time.

B4: Probe 2 (Site 2) (dsDNA)
DNA 1: AGGGTTTTAATTAACTATTCAGTG
DNA 2: CACTGAATAGTTAATTAAAACCCT
For B4, the binding result with POU4F2-l (setting [4]), with POU4F2-s (setting [4]) and in the data set with POU4F3 (setting [4]) was “binds” each time.
